Results on 1 molecule are retold here after PMC11098746 (2024).

Assay [1] addresses T1, ADP292.
T1 chain: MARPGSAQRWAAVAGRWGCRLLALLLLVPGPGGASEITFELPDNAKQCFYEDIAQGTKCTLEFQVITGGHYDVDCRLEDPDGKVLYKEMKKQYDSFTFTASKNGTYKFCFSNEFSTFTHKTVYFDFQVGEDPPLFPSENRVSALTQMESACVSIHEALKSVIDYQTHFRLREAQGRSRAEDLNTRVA
The experiment in a line: AVEXIS screen signal:noise (double-corrected).

Assay [2] has as its target T2, ADP269.
T2 chain: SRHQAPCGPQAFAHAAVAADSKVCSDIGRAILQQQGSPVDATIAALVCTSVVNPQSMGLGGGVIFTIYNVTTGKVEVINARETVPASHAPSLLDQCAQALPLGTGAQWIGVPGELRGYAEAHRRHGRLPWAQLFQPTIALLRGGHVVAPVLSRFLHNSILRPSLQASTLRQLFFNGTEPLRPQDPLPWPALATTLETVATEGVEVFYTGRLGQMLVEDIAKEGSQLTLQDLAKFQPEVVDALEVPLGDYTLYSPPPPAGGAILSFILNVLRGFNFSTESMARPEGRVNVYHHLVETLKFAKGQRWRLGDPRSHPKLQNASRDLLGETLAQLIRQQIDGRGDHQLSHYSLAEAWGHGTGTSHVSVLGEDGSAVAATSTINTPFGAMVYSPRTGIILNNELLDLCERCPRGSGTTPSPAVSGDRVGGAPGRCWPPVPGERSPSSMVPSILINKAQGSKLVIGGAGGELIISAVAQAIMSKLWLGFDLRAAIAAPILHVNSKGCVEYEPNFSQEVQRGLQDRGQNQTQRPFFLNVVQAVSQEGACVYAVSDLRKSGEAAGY
The experiment in a line: AVEXIS screen signal:noise (double-corrected).

B1: ADP237 (protein)
chain: TKKKVSVSEINFDSAVDDVQWCGNNHMTVLVKTVKGRLYRSSDGGKIWTNIAGNLADKENNKADPSSNHMNEMTTVDLIMVNSVNKNIVLIIGNQKNHYISEDSGETFRLLNYQNKINFWQFHSTKTHWALVSSWTEACYSNDDNSGECMQTLSLTKDLGRTFQLIDIYVVQFNWGDKESHLEDTIYYTRHKNRNGHQQRFSGWSKDVDFVATHNFGKSVDVLVKQGNKFLISNGYIFVAKLNDVIKQTVNMMVSTDGGKTFNKANLPENIHEKSYTVLDTSEGSIMLHVNHGTSSEKINTGNVYISDASGLNYALSLPNNIRTSSGECEFDRVLSLDGVYIANFLDVNNEIKDEDLRFQNFKSAIEEDIAPFETNTEKRKKQYNKGKNEDAVRTVISFNKGGEWSYLKAPKVDSRGNKYECGDNCYLHLHGITNYHQYAPFYSIENAVGIIMGTGNVGSHLRYESDEVNTFLSRDGGVTWIEAHKGPYIYEYGDYGGLIVMADDLRKTNQIVFSWNEGQSWFDFELGQFSIDVDNIVAEPNSASVEFLVYGTRNDVGVLYHLDFNALGQPLCKGLWAADSVSSDYETWSPTSGNFNDKCILGRKITYTRRKQTSECFNGKDLKRTVDKKPCECTPEDYECETGFTRKIGSYECKPNDPTLTIEGCTSSSYFYANAYRKVPGDICVNGWVPEKVPVPCPSYAPFNKAAK
modifications: bait human Fc-tagged dimer; N-glycosylation sequons mutated in Plasmodium baits
In the case of B1, the results for the binding score in assay [1] and in assay [2] were 5.28 and 10.4, respectively.
